For assay [1], the target named is IL-6R on the surface of TF-1 cells (UniProt P08887). Description: cell-based or functional assay.
The target of assay [2] is cynomolgus IL-6R used in Biacore (cynomolgus monkey). As to the kind of experiment: Biacore, periplasmic extract.
In assay [3] the target is T1, human soluble IL-6R, recombinant (human, UniProt P08887 20-358).
T1 construct: also called human IL6-R; bio-IL-6R
T1 sequence (looked up): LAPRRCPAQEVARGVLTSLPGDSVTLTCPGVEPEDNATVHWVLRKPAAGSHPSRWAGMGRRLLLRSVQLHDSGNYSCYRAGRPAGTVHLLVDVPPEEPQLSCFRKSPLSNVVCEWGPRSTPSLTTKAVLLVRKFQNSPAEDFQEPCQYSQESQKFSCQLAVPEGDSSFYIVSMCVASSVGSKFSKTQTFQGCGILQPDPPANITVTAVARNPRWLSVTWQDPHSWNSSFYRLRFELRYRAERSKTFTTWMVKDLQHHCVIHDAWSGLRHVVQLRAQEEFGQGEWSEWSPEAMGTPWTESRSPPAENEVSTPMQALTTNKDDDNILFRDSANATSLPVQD
As to the kind of experiment: Biacore, periplasmic extract. The method, then:
Periplasmic extracts of representative family clones were also analyzed on Biacore. Dissociation curves were used to calculate koff rates. koff rates are depicted in Table C-6.

Broadly, the koff is the rate constant with which the complex falls apart.

Sequence of IL-6R on the surface of TF-1 cells (P08887 20-468 limits assumed): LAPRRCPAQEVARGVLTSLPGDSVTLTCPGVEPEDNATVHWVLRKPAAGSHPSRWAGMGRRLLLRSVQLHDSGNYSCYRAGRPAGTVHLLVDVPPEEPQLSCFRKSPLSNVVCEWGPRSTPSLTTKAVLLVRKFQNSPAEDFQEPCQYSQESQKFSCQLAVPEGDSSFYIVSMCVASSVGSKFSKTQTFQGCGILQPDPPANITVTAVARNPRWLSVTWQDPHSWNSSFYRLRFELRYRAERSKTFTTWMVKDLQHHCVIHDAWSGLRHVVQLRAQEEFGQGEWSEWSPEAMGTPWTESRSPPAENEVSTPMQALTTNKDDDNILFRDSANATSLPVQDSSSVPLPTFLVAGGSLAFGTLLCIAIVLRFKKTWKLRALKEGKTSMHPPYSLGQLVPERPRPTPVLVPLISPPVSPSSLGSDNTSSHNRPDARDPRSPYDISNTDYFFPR

B1: IL6RPMP100G11 (VHH)
VHH: EVQLVESGGGLVQAGGSLRLSCAASGRGFSPYTMGWFRQAPGKERVFVAGISWSTGIAHYTDSVKGRFTISRDNAKNTGSLQMNSLKPEDTAVYYCAVVQTTKGNYDYWGQGTQVTVSS
notes: family 4; also called IL6R100G11
B1 showed an IC50, IL-6-dependent proliferation of TF-1 cells in assay [1] of 0.116 µM. Moreover, the koff in assay [2] amounted to 0.00045 s⁻¹; in assay [3], 0.00027 s⁻¹.

B2: IL6RPMP103A5 (VHH)
VHH: EVQLVESGGGLVQAGDSLRLSCVASGLPFSTLHMGWFRQAPGKEHESVSAISSDGGSEYYAGSVKGRFTISRDNAKNTVYLQMNSLKPEDTAVYYCAADPRRIGANIKYSDYWGQGTQVTVSS
In turn, B2 gave a koff in assay [2] of 0.00074 s⁻¹.

B3: IL6RPMP103A2 (VHH)
VHH: EVQLVESGGGLVQPGGSLRLSCAASGSIFSINTMGWYRQVPGKQRELVATVRSGSITNYADSVQDQFTITRDIDENTVYLQMNSLKPEDTAVYYCLTRASVPGRGYQDYWGQGTQVTVSS
Molecule B3 registered a koff in assay [2] of 0.001 s⁻¹.

B4: IL6RPMP103A4 (VHH)
VHH: EVQLVESGGGLVQPGGSLRLSCAASGSIFSINTMGWYRQVPGKQRELVATVRSGSITNYADSVQDRFTITRDIDENTVYLQMNSLKPEDTAVYYCLTRASVPGRGYQDYWGQGTQVTVSS
For B4, the koff in assay [2] came out at 0.00045 s⁻¹.

B5: IL6RPMP100D11 (VHH)
VHH: EVQLVESGGGLVQAGDSLRLSCLASGRSFKDDAMGWFRQAPGKEREFVSGIDWRGNIVDAESVKGRFTISRENAKNTLYLQMNHLKPEDTAVYYCAASSVFSDLRYRKNPKYWGQGTQVTVSS
B5 came in with a koff in assay [2] of 0.00074 s⁻¹.

B6: IL6RPMP105B8 (VHH)
VHH: EVQLVESGGGLVRAGGSLRLSCAASGFAFDDYAIGWFRQAPGKEREGVSSISSSNGNTYYADSVRGRFTISSDNAKNTVYLQMNSLKPEDTGVYYCAAIWGIFFNEKMPVGAYDYWGQGTQVTVSS
notes: family 3; periplasmic extract
Regarding B6, the koff in assay [2] and in assay [3] was 0.01 s⁻¹ throughout.

B7: IL6RPMP105H10 (VHH)
VHH: EVQMVESGGGLVQAGGSLRLSCAASGFAFDDYAIGWFRQAPGKEREGVSSISSSNGNTYYADSVRGRFTISSDNAKNTVYLQMNSLKPEDAGVYYCAAIWGIFFNEKMPVGAYDYWGQGTQVTVSS
notes: family 3; periplasmic extract
Take B7: the koff in assay [2] and in assay [3] was 0.01 s⁻¹ in each case.

B8: IL6RPMP108E9 (VHH)
VHH: EVQLVESGGGLVQAGGSLRLSCAFSRRSFGNFPMGWFRQRPGEEREYVAVISWNNNYIHYRDSVKGRFTASRDTSENRMYLQMNGLKPEDTAVYYCAARTKDNTLFTPAEEYDYWGQGTQVTVSS
notes: family 15; periplasmic extract
For the molecule B8, in assay [3], the binding result is listed as “no binding”.

B9: IL6RPMP107B4 (VHH)
VHH: EVQLVESGGGLVQAGGSLRLSCVASGLRLNMHRMGWFRQAPGKEREFVARIFTDDGDSYYADSVQGRFTISGDNAKNTVYLQMNSLKPEDTGVYFCAAGYMSGAESPIGYDNWGQGTQVTVSS
notes: family 17; periplasmic extract; also called PMP107B04
As for B9, the koff in assay [2] and in assay [3] was 0.01 s⁻¹ throughout.

B10: IL6RPMP106D6 (VHH)
VHH: EVQLVESGGGLVQAGGSLRLSCAASGFTFDDYAIGWFRQAPGKEREGVSCMISSDGSTYYADSVKGRFTISSDNAKNTVYLQMDSLKPEDTAVYYCAADLSLYGCYVGDRDLYDYDYWGQGTQVTVSS
notes: family 22; periplasmic extract; also called PMP106D06
For the molecule B10, in assay [3], the koff turned out to be 0.001 s⁻¹.

B11: IL6RPMP106B2 (VHH)
VHH: EVQLVESGGGLVQAGGSLRLSCAASGSIFRINAMGWYRQAPGKQRELVAAAISGGSTNYADFVKGRFTISRDNAKNTVYLQMNSLKPEDTAVYYCNALVVSHNYSDYVPFPDDYWGQGTQVTVSS
notes: family 6; periplasmic extract
As to B11, in assay [3], the koff turned out to be 0.01 s⁻¹.

B12: IL6RPMP105C2 (VHH)
VHH: EVQLVESGGGLVQAGGSLRLSCAASGSIFRINAMGWYRQAPGEQRELVAAAISGGSTNYADFVKGRFTISRDNAKNTVYLQMNSLKPEDTAVYYCNALVVSHNYSDYVPFPDDYWGQGTQVTVSS
notes: family 6; periplasmic extract
Regarding B12, the off-rate (koff) in assay [3] amounted to 0.01 s⁻¹.

B13: IL6RPMP105D3 (VHH)
VHH: EVQLEESGGGLVQAGGSLRLSCAASGSIFRINAMGWYRQAPGKQRELVAAAISGGSTNYADFVKGRFTISRDNAKNTVYLQMNSLKPEDTAVYYCNALVVSHNYSDYVPFPDDYWGQGTQVTVSS
notes: family 6; periplasmic extract
On to B13, for which, in assay [3], the koff was found to be 0.01 s⁻¹.

B14: IL6RPMP106F7 (VHH)
VHH: EVQLVESEGGLVQAGGSLRLSCAASGSIFRINAMGWYRQAPGKQRELVAAAISGGSTNYADFVKGRFTISRDNAKNTVYLQMNSLKPEDTAVYYCNALVVSHNYSDYVPFPDDYWGQGTQVTVSS
notes: family 6; periplasmic extract
On to B14, for which the koff in assay [3] was 0.01 s⁻¹.

B15: IL6RPMP103F2 (VHH)
VHH: EVQLVESGGGLVQAGGSLRLSCVASGHTSDTYIMAWFRQAPGKEREFVASILWDGSITYYADSVKDRFTISRDISRKTLYLQMNSLRPEDTATYTCARGIYFSRRYVDPGIYGTWGQGTQVTVSS
notes: family 26; periplasmic extract
As to B15, the binding result in assay [3] was “no binding”.

B16: IL6RPMP103C3 (VHH)
VHH: EVQLVESGGGLVQPGGSMRLSCAATGAIFSISTMGWYRQAPGAQREFVAGVGLDGTPNYADSVKGRFTISRDNTKNTVSLQMENLKPEDTGVYYCNIDEGMDYDGNFYDRWGQGTQVTVSS
notes: family 14; periplasmic extract
In the case of B16, in assay [3], the binding result is “no binding”.

B17: IL6RPMP104E7 (VHH)
VHH: EVQLVESGGGLVQAGGSLRLSCAAGGSIFSINAMGWYRQAPGKQRELVASITSGGSTTYADSVKGRFTISRDNAKDTVYLQMNSLKPEDTAVYYCNAHIRFPFPNDYWGQGTQVTVSS
notes: family 18; periplasmic extract; also called PMP104E07
B17: the koff in assay [3] worked out at 0.001 s⁻¹.

B18: IL6RPMP103B2 (VHH)
VHH: EVQLVESGGGLVQPGGSLRLSCAASGSTFSINMMAWYCQAPGKQRELVASISSGGGINYADSVKGRFTISRDYAENSVDLQMNSLKPEDTAVYYCNARGTYLNGDHYSTNYNSWGQGTQVTVSS
As for B18, in assay [2], the koff was 0.00045 s⁻¹.

B19: IL6RPMP101A5 (VHH)
VHH: EVQLVESGGGLVQAGGSLRLSCTASGRTFSDYDMGWFRQAPGKERECVAIIDTNGDNTLIVGSVKGRFAISSDNAKNTVYLQMNSLLPEDTAVYTCAAGVWSSLRHTAANYWGQGTQVTVSS
notes: family 5; periplasmic extract
As to B19, the figures for the koff in assay [2] and in assay [3] were 0.00045 s⁻¹ and 0.00027 s⁻¹, respectively.

B20: IL6RPMP108D10 (VHH)
VHH: EVQLVESGGGSVQAGGSLRLSCTASGRTFSDYDMGWFRQAPGKERECVAVIDTNGDNTLTVGSVKGRFAISRDNAKNTVYLQMNSLLPEDTAVYTCAAGAWSSLRSTAANYWGQGTQVTVSS
Consider B20, for which, in assay [2], the koff came out at 0.0009 s⁻¹.

B21: IL6RPMP108D1 (VHH)
VHH: EVQLVESGGGLVQAGGSLRLSCTASGRTFSDYDMGWFRQAPGKERECVAVIDTNGDNTLTVGSVKGRFAISRDNAKNTVYLQMNSLLPEDTAVYTCAAGAWSSLRSTAANYWGQGTKVTVSS
The molecule B21 came in with a koff in assay [2] of 0.00079 s⁻¹.

B22: IL6RPMP108C10 (VHH)
VHH: EVQLVESGGGLVQPGGSLRLSCTASGRTFSDYDMGWFRQAPGKERECVAVIDTNGDNTLTVGSVKGRFAISRDNAKNTVYLQMNSLLPEDTAVYTCAAGAWSSLRSTAANYWGQGTQVTVSS
Consider B22, for which, in assay [2], the koff is 0.00071 s⁻¹.

B23: IL6RPMP108F7 (VHH)
VHH: EVQLVESGGGLVQAGGSLRLSCTASGRTFSDYDMGWFRQAPGKERECVAVIDTNGDNTLTVGSVKGRFAISRDNAKNTVYLQMNSLLPEDTAVYTCAAGAWSSLRSTAANYWGQGTQVTVSS
As to B23, in assay [2], the koff was 0.00074 s⁻¹.

B24: IL6RPMP104B9 (VHH)
VHH: EVQLVESGGGLVQAGGSLRLSCTASGRTFSDYDMGWFRQAPGKERECVAIIDTNGDNTLIVGSVKGRFAISSDNAKNTVYLQMNSLLPEDTAVYTCAAGVWSSLRHTAANYWGQGTQVTVSS
notes: family 5; periplasmic extract
As for B24, the koff in assay [2] turned out to be 0.00074 s⁻¹; in assay [3], 0.00023 s⁻¹.

B25: IL6RPMP108C9 (VHH)
VHH: EVQLVESGGGLVQAGGSLRLSCAASGRTYAMAWFRQAPGKEREFVAAISIVTDYADSVKGRFNISRDNRENTVYLQMNSLKPEDTAVYYCAANTYYSGAYFPRGHEWYEYWGQGTQVTVSS
notes: family 16; periplasmic extract
In the case of B25, in assay [3], the binding result was “no binding”.

B26: IL6RPMP101G11 (VHH)
VHH: EVQLVESGGGLVQPGGSLRLSCAASASGFTLDYYAIGWFRQAPGKEREGVSCISSTDGSTYYADSVKGRFTISRDNAKNTVYLQMNSLNPEDTGVYTCAAVLTTAQAMGVPTRSYEYDYWGQGTQVTVSS
notes: family 2; periplasmic extract
With B26, the koff in assay [3] was 0.00042 s⁻¹.

B27: IL6RPMP120G6 (VHH)
VHH: EVQLVESGGDLVQTGGSLRLSCAASGITVSDRAMGWYRQAPGKQREMVAGVSRGGMTSYADSVKGRLTISRDNAKNSVYLQMNSLNPEDTAVYYCSAYYRYGSSVPQYWGQGTQVTVSS
In the case of B27, the IC50, IL-6-dependent proliferation of TF-1 cells in assay [1] was determined as 0.0102 µM.

B28: IL6RPMP101B6 (VHH)
VHH: EVQLVESGGGLVQAGGSLRLSCAASGSDFSIKAMGWYRQAPGKQRELVARITSGGSTVYADSVKGRFTISRDNAKNTVYLQMNSLKPEDATVYYCNAIVTYSDYDLGNDYWGQGTQVTVSS
notes: family 7; periplasmic extract
In the case of B28, the koff stood at 0.001 s⁻¹ in assay [2] and 0.00058 s⁻¹ in assay [3].

B29: IL6RPMP107E4 (VHH)
VHH: EVQLVESGGGLVQAGGSLRLSCAASGSIDRINAMGWYRQAPGKQRDFLAVITDGDKTLYADSVKGRFTISNDNAKNTVYLQMNSLKPEDTAVYYCNAYQAGWGDYWGQGTQVTVSS
notes: periplasmic extract
Regarding B29, the dissociation rate constant (koff) in assay [3] was found to be 0.01 s⁻¹.

The values are drawn from patent US20120171209A1 (Ablynx, published 2012).
